Values of other authors, collected in article PMC2792886.

Target: holoBirA (Escherichia coli) (UniProt P06709)

For holoBirA (from UniProt P06709), the Kd is given as 10 µM.
